Results on two molecules are retold here after patent US20100104554A1 (FUSION ANTIBODIES LIMITED A CORPORATION OF GREAT BRITIAN, published 2010).

In assay [1] the target is T1, human cathepsin S (Calbiochem) (human, UniProt P25774 115-331).
T1 construct: also called CatS; Cat S
The assay is described as follows: fluorometric enzyme inhibition assay with Z-VVR-AMC, rates taken from progress curves. As for the experimental part:
Enzymatic assays were used to ascertain the ability of the rCatSPP to inhibit the peptidolytic activity of human cathepsins S, L, K, V and B (Calbiochem). Assays were performed in triplicate in 96-well microtitre plates in the presence of 100 mM sodium acetate, 1 mM ethylenediaminetetraacetate (EDTA), 0.1% Brij and 1 mM: dithiothreitol (DTT) at pH 5.5. CatS activity was monitored using the fluorigenic substrate carbobenzloxy-L-valinyl-L-vahnyl-L-arginylamido-4-methyl coumarin (Z-Val-Val-Arg-AMC, 25 μM), assays for cathepsins L, K and V were performed using carbobenzloxy-L-phenylalanyl-L-arginylamido-4-methyl coumarin (Z-Phe-Arg-AMC, 25 μM) and assays for CatB were performed using carbobenzloxy-L-arginylamido -L-arginylamido-4-methyl coumarin (Z-Arg-Arg-AMG, 25 μM) as substrates. Purified rCatSPP was added to assays as required at various concentrations (0-1000 nM). All experiments were performed using a Cytofluor® 4000 spectrofluorimeter with excitation at 395 nm and emission at 460 nm. […]
The inhibition of CatS peptidolytic activity using CatSPP Fc was measured. The rCatSPP-Fc was assessed by fluorometric assay using the fluorogenic substrate Z-VVR-AMC to determine if the species had the ability to retain its inhibition of CatS after the addition of the Fc-domain without any negative effects on the kinetics. […]

For assay [2], the target named is T1, human cathepsin S (Calbiochem). The assay is described as follows: cell-based or functional assay.
The target in assay [3] is T2, human cathepsin K (Calbiochem) (human, UniProt P43235 115-329).
T2 construct: also called CatK; Cat K
T2 sequence (looked up): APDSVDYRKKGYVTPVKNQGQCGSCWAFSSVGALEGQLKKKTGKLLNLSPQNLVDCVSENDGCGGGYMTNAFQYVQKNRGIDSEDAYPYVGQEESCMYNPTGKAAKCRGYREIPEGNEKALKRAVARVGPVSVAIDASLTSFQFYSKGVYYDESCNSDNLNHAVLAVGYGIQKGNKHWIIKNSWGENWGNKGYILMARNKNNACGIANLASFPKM
The assay is described as follows: fluorometric enzyme inhibition assay with Z-Phe-Arg-AMC, non-linear regression of progress curves. As for the experimental part: (§1) Enzymatic assays were used to ascertain the ability of the rCatSPP to inhibit the peptidolytic activity of human cathepsins S, L, K, V and B (Calbiochem). Assays were performed in triplicate in 96-well microtitre plates in the presence of 100 mM sodium acetate, 1 mM ethylenediaminetetraacetate (EDTA), 0.1% Brij and 1 mM: dithiothreitol (DTT) at pH 5.5. CatS activity was monitored using the fluorigenic substrate carbobenzloxy-L-valinyl-L-vahnyl-L-arginylamido-4-methyl coumarin (Z-Val-Val-Arg-AMC, 25 μM), assays for cathepsins L, K and V were performed using carbobenzloxy-L-phenylalanyl-L-arginylamido-4-methyl coumarin (Z-Phe-Arg-AMC, 25 μM) and assays for CatB were performed using carbobenzloxy-L-arginylamido -L-arginylamido-4-methyl coumarin (Z-Arg-Arg-AMG, 25 μM) as substrates. Purified rCatSPP was added to assays as required at various concentrations (0-1000 nM). All experiments were performed using a Cytofluor® 4000 spectrofluorimeter with excitation at 395 nm and emission at 460 nm. To confirm that the rCatSPP-Fc also had the ability to inhibit the activity of CatS, flurometric assays were performed using CatS, Z-Val-Val-Arg-AMC, 25 μM) in the presence of the rCatSPP-Fc (0 nM-200 nM).
(§2) Fluorescence was monitored for 30 mins and the RFU plotted over time to generate fluorometric progress curves. […] All fluorometric assays were performed in replicates of three.

The target in assay [4] is T3, human cathepsin L (Calbiochem) (human, UniProt P07711 114-333, limits assumed).
T3 construct: also called CatL; Cat L
T3 sequence (P07711 114-333 limits assumed): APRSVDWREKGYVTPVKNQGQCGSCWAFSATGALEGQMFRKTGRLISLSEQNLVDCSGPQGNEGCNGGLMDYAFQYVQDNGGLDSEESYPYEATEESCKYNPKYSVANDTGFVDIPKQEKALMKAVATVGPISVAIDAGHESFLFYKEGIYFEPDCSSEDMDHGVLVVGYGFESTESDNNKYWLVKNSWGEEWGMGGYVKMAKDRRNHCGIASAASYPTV
Described as above. How it is done: as §1, §2

In assay [5] the target is T4, human cathepsin V (Calbiochem) (human, UniProt O60911 114-334).
T4 construct: also called CatV; Cat V
T4 sequence (O60911 114-334 limits assumed): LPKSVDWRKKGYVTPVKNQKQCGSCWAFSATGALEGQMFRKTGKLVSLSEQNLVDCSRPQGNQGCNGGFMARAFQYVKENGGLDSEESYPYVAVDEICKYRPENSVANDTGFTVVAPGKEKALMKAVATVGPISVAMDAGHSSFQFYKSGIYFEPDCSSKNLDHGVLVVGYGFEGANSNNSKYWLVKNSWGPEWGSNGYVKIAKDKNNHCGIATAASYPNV
The description is as above. As for the experimental part:
as §1, §2

B1: recombinant cathepsin S propeptide with C-terminal IgG2 Fc domain and N-terminal His-tag, expressed from pRSET A-Fc (Fc fusion)
chain: QLHKDPTLDHHWHLWKKTYGKQYKEKNEEAVRRLIWEKNLKFVMLHNLEHSMGMHSYDLGMNHLGDMTSEEVMSLMSSLRVPSQWQRNITYKSNPNR
notes: About 46 kDa, made in E. coli BL21 (DE3) pLysS; also called rCatSPP-Fc; CatSPP-Fc; not shown: N-terminal His-tag and leader from the pRSET A vector; IgG2 Fc domain engineered into the pRSET vector
One may read the Ki as the equilibrium dissociation constant of an inhibitor or competing ligand from its target. Higher therefore signals weaker binding. Take B1: the affinity in assay [1], expressed as Ki, was 8.9 nM. Moreover, the “EC50 of MDA-MB-231 tumour cell invasion (modified Boyden chamber, Matrigel)” value in assay [2] was determined as 8.3 nM.

B2: recombinant human cathepsin S propeptide (residues 17-113) with N-terminal hexahistidine tag, expressed from pQE30 (peptide)
chain: MRGSHHHHHHGSQLHKDPTLDHHWHLWKKTYGKQYKEKNEEAVRRLIWEKNLKFVMLHNLEHSMGMHSYDLGMNHLGDMTSEEVMSLTSSLRVPSQWQRNITYKSNPNRVDLQPSLIS
notes: also called rCatSPP; CatSPP
As for B2, the Ki is 17.6 nM in assay [3], 0.62 nM in assay [4] and 4.8 nM in assay [5]. Moreover, in assay [2], the “EC50 of MDA-MB-231 tumour cell invasion (modified Boyden chamber, Matrigel)” value was found to be 78 nM.
